The values below are quoted from earlier work in article PMC3587688.

The target of this series is ephrin-B2 (Homo sapiens) (UniProt P52799).
ephrin-B2 (Homo sapiens), sequence (P52799 28-333): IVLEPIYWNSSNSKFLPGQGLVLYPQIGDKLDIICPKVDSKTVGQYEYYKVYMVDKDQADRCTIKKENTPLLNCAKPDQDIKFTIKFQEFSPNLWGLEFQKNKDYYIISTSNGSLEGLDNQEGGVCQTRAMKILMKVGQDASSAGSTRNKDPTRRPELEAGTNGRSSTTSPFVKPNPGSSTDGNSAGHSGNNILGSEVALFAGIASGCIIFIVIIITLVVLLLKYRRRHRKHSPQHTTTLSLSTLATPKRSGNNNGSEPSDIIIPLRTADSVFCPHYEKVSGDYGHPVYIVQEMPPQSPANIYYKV

HeV-G, sequence (O89343 whole entry): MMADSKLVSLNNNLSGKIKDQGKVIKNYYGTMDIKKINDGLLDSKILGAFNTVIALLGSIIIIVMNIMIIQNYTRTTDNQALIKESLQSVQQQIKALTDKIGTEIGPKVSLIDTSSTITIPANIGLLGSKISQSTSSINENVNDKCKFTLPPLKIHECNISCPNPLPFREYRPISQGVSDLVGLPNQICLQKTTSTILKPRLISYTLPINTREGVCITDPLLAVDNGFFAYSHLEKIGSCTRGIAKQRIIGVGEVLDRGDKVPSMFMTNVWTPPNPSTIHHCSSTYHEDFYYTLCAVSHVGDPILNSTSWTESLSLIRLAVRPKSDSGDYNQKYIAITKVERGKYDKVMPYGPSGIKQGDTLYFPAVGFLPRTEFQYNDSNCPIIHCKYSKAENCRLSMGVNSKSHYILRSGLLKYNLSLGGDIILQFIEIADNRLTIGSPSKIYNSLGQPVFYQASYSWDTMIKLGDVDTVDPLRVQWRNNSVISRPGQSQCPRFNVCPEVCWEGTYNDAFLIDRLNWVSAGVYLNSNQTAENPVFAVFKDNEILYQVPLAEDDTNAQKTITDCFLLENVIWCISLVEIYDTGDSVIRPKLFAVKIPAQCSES

The term Kd denotes the concentration at which binding is half-saturated. For the substance HeV-G (from UniProt O89343), the Kd was 0.57 nM.
